Laboratory results taken from patent publication US20240272170A1 (QUANTUM SI, published 2024).
Non-standard residues stand in square brackets, D forms with d. No end group written: not given here. *: point of attachment. FITC = O=C1OC2(c3ccc(O)cc3Oc3cc(O)ccc32)c2ccc(NC(=S)*)cc21; Lys(N3) = [N-]=[N+]=NCCCC[C@H](N)C(=O)O; pT = C[C@@H](OP(=O)(O)O)[C@H](N)C(=O)O; Met(O) = CS(=O)CC[C@H](N)C(=O)O; Cit = NC(=O)NCCC[C@H](N)C(=O)O

Legend:
[1] = target: T1, RA peptide (XAKLDEESILKQK-FITC, X = R); assay: fluorescence polarization titration, PS1122 0-5000 nM
T1 construct: also called peptide with N-terminal arginine
T1 peptide: RAKLDEESILKQK(FITC)
Experimental: (§1) Binding affinity was measured by polarization using a labeled peptide. The polarization response and total intensity measurements were carried out at 20° C. on a microplate fluorometer with 480 nm excitation and 530 nm emission. […] Multiple analyses were performed at increasing recognizer concentration at a fixed concentration of a target peptide to obtain a titration curve. An equilibrium polarization response at each concentration was plotted and fit to calculate the KD.
Fluorescence polarization assays were performed with all candidates, and single point binding responses were measured at a fixed concentration of the binders (FIG. 13A). […] We carried out multiple polarization binding titration analysis at increasing concentration of binder protein, and the Kds were determined from the titration curves (FIG. 13B).

[2] = target: T2, target peptide Arg-Ala-Lys-Leu (RAKL); assay: purified protein:peptide complex, X-ray crystallography
T2 peptide: RAKL

[3] = target: T1, RA peptide (XAKLDEESILKQK-FITC, X = R); assay: fluorescence polarization titration, 20 C
[4] = target: T3, RA peptide (Octet assay of PS621 variants); assay: Octet (BLI), 30 C
T3 construct: X… with X = R
Excerpt: (§2) Peptides of the sequence RXKLDEESILKQK (SEQ ID NO: 1076) were also used to evaluate the penultimate residue effect.

[5] = target: T4, RR peptide (Octet assay of PS621 variants); assay: Octet (BLI), 30 C
T4 construct: RX… with X = R
Excerpt: as §2

[6] = target: T5, RQ peptide (Octet assay of PS621 variants); assay: Octet (BLI), 30 C
T5 construct: RX… with X = Q
Excerpt: as §2

[7] = target: T6, RF peptide (Octet assay of PS621 variants); assay: Octet (BLI), 30 C
T6 construct: RX… with X = F
Excerpt: as §2

[8] = target: T7, RL peptide (Octet assay of PS621 variants); assay: Octet (BLI), 30 C
T7 construct: RXKLDEESILKQK with X = L
T7 peptide: RLKLDEESILKQK
Excerpt: as §2

[9] = target: T8, RE peptide (Octet assay of PS621 variants); assay: Octet (BLI), 30 C
T8 construct: RXKLDEESILKQK with X = E
T8 peptide: REKLDEESILKQK
Excerpt: as §2

[10] = target: T9, RS peptide (Octet assay of PS621 variants); assay: Octet (BLI), 30 C
T9 construct: RXKLDEESILKQK with X = S
T9 peptide: RSKLDEESILKQK
Excerpt: as §2

[11] = target: RA Peptide (stopped-flow); assay: stopped-flow rapid kinetics
[12] = target: RL Peptide (stopped-flow); assay: stopped-flow rapid kinetics
[13] = target: T10, KA peptide (Octet assay of PS621 variants); assay: Octet (BLI), 30 C
T10 construct: XAKLDEESILKQK with X = K
T10 peptide: KAKLDEESILKQK

[14] = target: T11, HA peptide (Octet assay of PS621 variants); assay: Octet (BLI), 30 C
T11 construct: XAKLDEESILKQK with X = H
T11 peptide: HAKLDEESILKQK

[15] = target: T12, HL Peptide (stopped-flow); assay: stopped-flow rapid kinetics
T12 construct: the text around it speaks of HA peptide

[16] = target: T13, labeled peptide X…-FITC with N-terminal valine (FITC on the C-terminal Lys); assay: fluorescence polarization
T13 construct: also called VA peptide; valine peptide

[17] = target: T14, RLMoFAYPDDD after cleavage to N-terminal leucine (LMoFAYPDDD) (not fully specified (C-terminus); printed as LMoFAYPDDD; also: C-terminal azidoLys linked to DNA-streptavidin); assay: single-molecule dynamic sequencing on chip
T14 construct: second population of traces, methionine oxidized
T14 peptide: L[Met(O)]FAYPDDD

[18] = target: T15, RLpTFIAYPDDD after cleavage to N-terminal leucine (LpTFIAYPDDD); assay: single-molecule dynamic sequencing on chip
T15 construct: N-terminus exposed by aminopeptidases
T15 peptide: L[pT]FIAYPDDD[Lys(N3)]

[19] = target: T16, … after cleavage to N-terminal leucine (LIFAYPDDD) (not fully specified (C-terminus); also: C-terminal azidolysine linked to DNA-streptavidin); assay: single-molecule dynamic sequencing on chip
T16 construct: N-terminus exposed by aminopeptidases
T16 peptide: LIFAYPDDD

[20] = target: T17, synthetic peptide LCitLAFAYPDDDK; assay: single-molecule dynamic sequencing on chip
T17 construct: also called QP789
T17 peptide: L[Cit]LAFAYPDDDK

[21] = target: T18, synthetic peptide LRLAFAYPDDDK (not fully specified (residue 12)); assay: single-molecule dynamic sequencing on chip
T18 construct: also called QP707
T18 peptide: LRLAFAYPDDDK-NH2

[22] = target: T19, … after cleavage to N-terminal leucine (LVFAYPDDD) (not fully specified (C-terminus); also: C-terminal azidolysine linked to DNA-streptavidin); assay: single-molecule dynamic sequencing on chip
T19 construct: N-terminus exposed by aminopeptidases
T19 peptide: LVFAYPDDD

[23] = target: T20, … after cleavage to N-terminal leucine (LAFAYPDDD) (not fully specified (C-terminus); also: C-terminal azidolysine linked to DNA-streptavidin); assay: single-molecule dynamic sequencing on chip
T20 construct: N-terminus exposed by aminopeptidases
T20 peptide: LAFAYPDDD

[24] = target: T21, … after cleavage to N-terminal leucine (LTFIAYPDDD); assay: single-molecule dynamic sequencing on chip
T21 construct: N-terminus exposed by aminopeptidases
T21 peptide: LTFIAYPDDD

[25] = target: T22, … after cleavage to N-terminal leucine (LMFAYPDDD) (not fully specified (C-terminus); also: C-terminal azidolysine linked to DNA-streptavidin); assay: single-molecule dynamic sequencing on chip
T22 construct: first population of traces, methionine not oxidized
T22 peptide: LMFAYPDDD

[26] = target: T23, labeled peptide XAKLDEESILKQK-FITC with N-terminal methionine; assay: fluorescence polarization titration, FITC peptide (FIG. 9D)
T23 construct: also called MA peptide
T23 peptide: MAKLDEESILKQK(FITC)
Experimental: as §1

[27] = target: T24, target peptide Ala-Ala-Lys-Leu (AAKL); assay: purified protein:peptide complex, X-ray crystallography
T24 peptide: AAKL

[28] = target: T25, target peptide Met-Ala-Lys-Leu (MAKL); assay: as above
T25 peptide: MAKL

[29] = target: T26, labeled peptide XAKLDEESILKQK-FITC with N-terminal isoleucine; assay: fluorescence polarization titration, recognizer 0-5000 nM, labeled peptide fixed
T26 construct: also called IA peptide
T26 peptide: IAKLDEESILKQK(FITC)
Experimental: as §1

[30] = target: T27, labeled peptide X…-FITC with N-terminal leucine (FITC on the C-terminal Lys); assay: as above
T27 construct: the sentence itself names only the N-terminal residue; also called LA peptide
Experimental: as §1

[31] = target: T13, labeled peptide X…-FITC with N-terminal …; assay: fluorescence polarization titration, recognizer 0-4000 nM, labeled peptide fixed
Experimental: as §1

[32] = target: peptide with N-terminal AK (lysine peptide of Example 12); assay: single-molecule dynamic sequencing on chip
[33] = target: peptide with N-terminal AK{acetyl} (acetyl-lysine peptide of Example 12); assay: single-molecule dynamic sequencing on chip

B1: PS1122 (designed binder)
chain: MHSKFSHAGRICGAKFKVGEPIYRCKECSFDDTCVLCVNCFNPKDHLGHHVYTTICTEFNNGECDCGDKTAWNHTLFCKAEEG
notes: PS621 with T47L, I63E, E70T; on chip labeled with streptavidin-tetraCy3
Kd [1]: 70 nM
binding result [2]: binds
Kd [3]: 70 nM

B2: PS621 (other)
chain: MHSKFSHAGRICGAKFKVGEPIYRCKECSFDDTCVLCVNCFNPKDHTGHHVYTTICTEFNNGICDCGDKEAWNHTLFCKAEEG
notes: UBR protein (UBR-box) parent of PS1101-PS1122
Octet response [4]: 9.3
Octet response [5]: 6.3
Octet response [6]: 7.4
Octet response [7]: 8.4
Octet response [8]: 10.2
Octet response [9]: 5.8
Octet response [10]: 7.1
koff [11]: 61.8 s⁻¹
koff [12]: 17.7 s⁻¹
Octet response [13]: 5.2
Octet response [14]: 2

B3: PS1115 (designed binder)
chain: MHSKFSHAGRICGAKFKVGEPIYRCKECSFDDTCVLCVNCFNPKDHRGHHVYTTICTERNNGICDCGDKEAWNHELFCKAEEG
notes: Variant of PS621
Octet response [4]: 10.8
Octet response [5]: 6.7
Octet response [6]: 9.1
Octet response [7]: 10
Octet response [8]: 11.8
Octet response [9]: 7.6
Octet response [10]: 8.5
koff [12]: 14.4 s⁻¹
koff [15]: 40.2 s⁻¹
Octet response [13]: 6.5
Octet response [14]: 3

B4: PS824 (designed binder)
chain: MPTAASATESAFEDTPAPARPEVDGRTKPKRQPRYHVVLWDDDDHTYQYVVVMLRSLFGHPPERGYRLAKEMDTQGRVIVLTTTREHAELKRDQIHAFGYDRLLARSKGSMKASIEAEE
notes: PS557 with I12F, N41D, Q55R, V72M
fold improvement of binding against the wild-type protein PS557 [16]: 5 fold

B5: PS961 (designed binder)
chain: MPTAASATESAIEDTPAPARPEVDGRTKPKRQPRYHVVLWDDDDHTYQYVVVMLRSLFGHPPSRGYRMAKEMDTQGRVIVLTTTREHAELKRDQIHAFGRDRLLARSKGSMKASIEAEE
notes: PS557 with N41D, Q55R, E63S, L68M, V72M, Y100R; His/biotinylation tag of the assay construct is not specified; also called Planctomycetes ClpS variant
median pulse duration (PD) [17]: 0.35 s
RS mean pulse duration (PD) [18]: 0.3 s
median pulse duration (PD) [19]: 2.22 s
median pulse duration (PD) [20]: 0.78 s
median pulse duration (PD) [21]: 0.43 s
median pulse duration (PD) [22]: 4.21 s
median pulse duration (PD) [23]: 1.29 s
RS mean pulse duration (PD) [24]: 1.2 s
median pulse duration (PD) [25]: 0.86 s
Kd [26]: 947 nM
binding result [27]: binds
binding result [28]: binds
Kd [29]: 68 nM
Kd [30]: 55 nM
Kd [31]: 144 nM

B6: PS1165 (other)
chain: MGLENSLETLRFSISNLSMQTHAARMRTFMYWPSSVPVQPEQLASAGFYYVGRNDDVKCFCCDGGLRCWESGDDPWVEHAKWFPRCEFLIRMKGQEFVDEIQGRYPHLLEQLLSG
notes: alanine recognizer
RS mean pulse duration (PD) [32]: 1.3 s
RS mean pulse duration (PD) [33]: 2.2 s
